Test results from US20150266963A1 (ARGEN X B V, published 2015).

Columns and labels:
[1] = target: T1, human-mouse CD70 chimera chim-3 (Flag-TNC-CD70); assay: ELISA; chimera captured by anti-Flag mAb
T1 construct: also called chimera 3
T1 chain: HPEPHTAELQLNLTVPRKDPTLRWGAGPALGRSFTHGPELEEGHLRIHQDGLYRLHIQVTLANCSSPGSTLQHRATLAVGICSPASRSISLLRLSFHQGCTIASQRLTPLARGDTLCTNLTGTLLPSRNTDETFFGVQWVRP

[2] = target: T2, human-mouse CD70 chimera chim-2 (Flag-TNC-CD70); assay: ELISA; chimera captured by anti-Flag mAb
T2 construct: also called chimera 2
T2 chain: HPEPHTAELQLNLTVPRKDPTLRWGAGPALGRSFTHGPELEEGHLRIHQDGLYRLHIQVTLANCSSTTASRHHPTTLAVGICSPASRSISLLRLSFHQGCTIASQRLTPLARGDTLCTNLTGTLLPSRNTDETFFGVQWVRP

[3] = target: T3, human-mouse CD70 chimera chim-4 (Flag-TNC-CD70) (Mus musculus (Mouse), UniProt O55237 54-192); assay: ELISA; chimera captured by anti-Flag mAb
T3 construct: also called chimera 4
T3 chain: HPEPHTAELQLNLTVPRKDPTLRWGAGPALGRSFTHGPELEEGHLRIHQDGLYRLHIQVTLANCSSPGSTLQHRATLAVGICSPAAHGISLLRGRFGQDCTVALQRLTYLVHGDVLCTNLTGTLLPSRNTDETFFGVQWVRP

[4] = target: T4, human CD70 expressed on the surface of cells (human, UniProt P32970 1-193); assay: FACS MFI at 37 C, HUT78 cells; reference SGN70
T4 construct: whole, on cells; also called cell surface expressed CD70; CD70 on cells
T4 sequence (looked up): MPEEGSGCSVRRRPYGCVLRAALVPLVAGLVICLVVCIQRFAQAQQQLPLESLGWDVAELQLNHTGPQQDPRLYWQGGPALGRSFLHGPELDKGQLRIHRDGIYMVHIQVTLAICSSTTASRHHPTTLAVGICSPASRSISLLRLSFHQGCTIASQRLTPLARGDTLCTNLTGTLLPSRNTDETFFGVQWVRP
Experimental: (§1) Several cancer cell lines were tested by FACS analysis for binding of ARGX-110 and SGN70 (described in US2010/0129362) at saturating mAb concentrations (at least 2 μg/ml). This was either done at 4° C. (1 hour incubation of cells with mAbs) or at 37° C. (15 minutes incubation of cells with mAbs). Binding was detected using anti-hIgG1-Fc-FITC (AF006, Binding Site) or anti-hIgG1-Fc-PE antibody (eBioscience, 12-4998). Fluorescence was measured using a flow cytometer.

[5] = target: T4, human CD70 expressed on the surface of …; assay: FACS MFI at 37 C, EBC-1 cells; reference SGN70
Experimental: as §1

[6] = target: T4, human CD70 expressed on the surface of …; assay: FACS MFI at 37 C, Mino cells; reference SGN70
Experimental: as §1

[7] = target: T4, human CD70 expressed on the surface of …; assay: flow cytometry on U266 cells, goat anti human IgG1 FITC [panel U266]
[8] = target: T4, human CD70 expressed on the surface of …; assay: flow cytometry on SU-DHL-6 cells, 1 h at 4 °C, anti-hIgG1-Fc-FITC or anti-hIgG-Fc-PE [panel SU-DHL-6]
Experimental: […] This was either done at 4° C. (1 hour incubation of cells with mAbs) or at 37° C. (15 minutes incubation of cells with mAbs). Binding was detected using anti-hIgG1-Fc-FITC (AF006, Binding Site) or anti-hIgG1-Fc-PE antibody (eBioscience, 12-4998). Fluorescence was measured using a flow cytometer.

B1: ARGX-110 (non-fucosylated 41D12 human IgG1) (antibody, V domains shown)
VH: EVQLVESGGGLVQPGGSLRLSCAASGFTFSVYYMNWVRQAPGKGLEWVSDINNEGGTTYYADSVKGRFTISRDNSKNSLYLQMNSLRAEDTAVYYCARDAGYSNHVPIFDSWGQGTLVTVSS
VL: QAVVTQEPSLTVSPGGTVTLTCGLKSGSVTSDNFPTWYQQTPGQAPRLLIYNTNTRHSGVPDRFSGSILGNKAALTITGAQADDEAEYFCALFISNPSVEFGGGTQLTVLG
notes: also called 41D12 (ARGX-110)
binding result [1]: no binding (tested: dilution series from 10 µg/ml) | binding result [2]: no binding (tested: dilution series from 10 µg/ml) | binding result [3]: no binding (tested: dilution series from 10 µg/ml) | Signal in FACS of ARGX-110/signal in FACS of SGN70 [4]: 1 ratio | Signal in FACS of ARGX-110/signal in FACS of SGN70 [5]: 8.9 ratio | Signal in FACS of ARGX-110/signal in FACS of SGN70 [6]: 1 ratio | EC50 (read off the curve) [7]: ~100 ng/mL | EC50 (read off the curve) [8]: ~2000 ng/mL
